B1: DNAJC10 (DNAJ (HSP40) HOMOLOG, SUBFAMILY C, MEMBER 10) (other)
chain: DQDFYSLLGVSKTASSREIRQAFKKLALKLHPDKNPNNPNAHGDFLKINRAYEVLKDEDLRKKYDKYGEKGLEDNQGGQYESWNYYRYDFGIYDDDPEIITLERREFDAAVNSGELWFVNFYSPGCSHCHDLAPTWRDFAKEVDGLLRIGAVNCGDDRMLCRMKGVNSYPSLFIFRSGMAPVKYHGDRSKESLVSFAMQHVRSTVTELWTGNFVNSIQTAFAAGIGWLITFCSKGGDCLTSQTRLRLSGMLDGLVNVGWMDCATQDNLCKSLDITTSTTAYFPPGATLNNKEKNSILFLNSLDAKEIYLEVIHNLPDFELLSANTLEDRLAHHRWLLFFHFGKNENSNDPELKKLKTLLKNDHIQVGRFDCSSAPDICSNLYVFQPSLAVFKGQGTKEYEIHHGKKILYDILAFAKESVNSHVTTLGPQNFPANDKEPWLVDFFAPWCPPCRALLPELRRASNLLYGQLKFGTLDCTVHEGLCNMYNIQAYPTTVVFNQSNIHEYEGHHSAEQILEFIEDLMNPSVVSLTPTTFNELVTQRKHNEVWMVDFYSPWCHPCQVLMPEWKRMARTLTGLINVGSIDCQQYHSFCAQENVQRYPEIRFFPPKSNKAYHYHSYNGWNRDAYSLRIWGLGFLPQVSTDLTPQTFSEKVLQGKNHWVIDFYAPWCGPCQNFAPEFELLARMIKGKVKAGKVDCQAYAQTCQKAGIRAYPTVKFYFYERAKRNFQEEQINTRDAKAIAALISEKLETLRNQGKRNKDEL
notes: Endogenous protein in lysates of human UCB-derived megakaryocytes or HEK293 cells

The molecules below were run against αIIb (INTEGRIN, ALPHA 2B; PLATELET GLYCOPROTEIN IIB OF IIB/IIIA COMPLEX, ANTIGEN CD41) (human) (UniProt P08514) (assay: αIIb complexes captured, mass spectrometry; No. Expts 2).
With “5′-NUCLEOTIDASE DOMAIN CONTAINING 2 (from UniProt Q9H857 1-520)” the #Peptides was 34 peptides.
“ALDEHYDE DEHYDROGENASE 18 FAMILY, MEMBER A1 (from UniProt P54886 1-795)” showed a #Peptides of 16 peptides.
“CHAPERONIN CONTAINING TCP1, SUBUNIT 2 (BETA) (from UniProt P78371 2-535)” was tested, and the #Peptides was 20 peptides.
“DEAH (ASP-GLU-ALA-HIS) BOX PO… 15 (from UniProt O43143 1-795)” showed a #Peptides of 68 peptides.
“DYNAMIN BINDING PROTEIN (from UniProt Q6XZF7 1-1577)” gave a #Peptides of 30 peptides.
“FILAMIN A, ALPHA (ACTIN BINDING PROTEIN 280) (from UniProt P21333 2-2647)” was tested, and the #Peptides was 14 peptides.
Molecule “HEAT SHOCK 70 kDa PROTEIN 8 (from UniProt P11142 2-646)” has a #Peptides of 11 peptides.
“HETEROGENEOUS NUCLEAR RIBONUCLEOPROTEIN L (from UniProt P14866 1-589)” was tested, and the #Peptides was 26 peptides.
With “TUBULIN, BETA (from UniProt P07437 1-444)” the #Peptides was 52 peptides.

Each molecule was assayed against αIIb (INTEGRIN, ALPHA 2B; PLATELET GLYCOPROTEIN IIB OF IIB/IIIA COMPLEX, ANTIGEN CD41) (human) (UniProt P08514) (assay: αIIb complexes captured, mass spectrometry; No. Expts 3).
With “GLUTAMATE DEHYDROGENASE 1 (from UniProt P00367 54-558)” the #Peptides was 83 peptides.
KIAA1529 (from UniProt Q9P1Z9 1-1701) showed a #Peptides of 62 peptides.
Work on “PLASMINOGEN (from UniProt P00747 20-810)” yielded a #Peptides of 22 peptides.
Work on “SHROOM3 F-ACTIN BINDING PROTEIN (from UniProt Q8TF72 1-1996)” yielded a #Peptides of 7 peptides.
“THIOREDOXIN DOMAIN CONTAINING 4 (ENDOPLASMIC RETICULUM) (from UniProt Q9BS26 30-406)” was tested, and the #Peptides was 20 peptides.

These molecules were tested against αIIbβ3 (human) (UniProt P08514) (assay: antibody staining of UCB-derived megakaryocytes, after thrombin receptor-activating peptide).
“PAC1, an activation-dependent, ligand-mimetic anti-αIIbβ3 monoclonal antibody” was tested, and the percentage of UCB cells recognized was 16%.

Each molecule was assayed against T1, mature αIIbβ3 complex (human, UniProt P08514 32-887; P08514 891-1039; P05106 27-788) (assay: co-immunoprecipitation with conformation-specific mAb M148, immunoblot for DNAJC10).
T1 construct: Endogenous, from megakaryocyte lysates
B1: no binding.

What follows are molecules tested against αIIb (INTEGRIN, ALPHA 2B; PLATELET GLYCOPROTEIN IIB OF IIB/IIIA COMPLEX, ANTIGEN CD41) (human) (UniProt P08514) (assay: αIIb complexes captured, mass spectrometry; No. Expts 4).
Work on “ASPARTYL-TRNA … (from UniProt P14868 1-501)” yielded a #Peptides of 65 peptides.

These molecules were tested against αIIb (INTEGRIN, ALPHA 2B; PLATELET GLYCOPROTEIN IIB OF IIB/IIIA COMPLEX, ANTIGEN CD41) (human) (UniProt P08514) (assay: αIIb complexes captured, mass spectrometry; No. Expts 1).
“PROTEIN KINASE, AMP-…, GAMMA 1 NON-… SUBUNIT (from UniProt P54619 1-331)” showed a #Peptides of 12 peptides.
Work on “PROTEIN PHOSPHATASE 1, REGULATORY (INHIBITOR) SUBUNIT 9A (from UniProt Q9ULJ8 1-1098)” yielded a #Peptides of 6 peptides.
For “PROTEIN PHOSPHATASE 1, … SUBUNIT, ALPHA ISOFORM (from UniProt P62136 2-330)”, the #Peptides was 2 peptides.
“PYRUVATE KINASE, MUSCLE (from UniProt P14618 2-531)” showed a #Peptides of 13 peptides.
In the case of “RAB … LYSOSOMAL PROTEIN-LIKE 1 (from UniProt Q5EBL4 1-403)”, the #Peptides is reported as 7 peptides.
“RAN BINDING PROTEIN 10 (from UniProt Q6VN20 2-620)” was tested, and the #Peptides was 2 peptides.
RAVER1 (from UniProt Q8IY67 2-606) gave a #Peptides of 2 peptides.
Work on “RB1-INDUCIBLE COILED-COIL 1 (from UniProt Q8TDY2 1-1594)” yielded a #Peptides of 6 peptides.
“REGULATION OF NUCLEAR pre-mRNA DOMAIN CONTAINING 1A (from UniProt Q96P16 2-312)” was tested, and the #Peptides was 7 peptides.
For “SEC13-LIKE 1 (S. …) (from UniProt P55735 2-322)”, the #Peptides was 3 peptides.
“SEC23 HOMOLOG A (S. …) (from UniProt Q15436 2-765)” was tested, and the #Peptides was 3 peptides.
“SEMENOGELIN I (from UniProt P04279 24-462)” showed a #Peptides of 3 peptides.
Work on “SERPINE1 MRNA BINDING PROTEIN 1 (from UniProt Q8NC51 2-408)” yielded a #Peptides of 6 peptides.
“SIN3A-ASSOCIATED PROTEIN, 130 kDa (from UniProt Q9H0E3 1-1048)” was tested, and the #Peptides was 5 peptides.
“SODIUM CHANNEL, VOLTAGE-GATED, TYPE X, ALPHA (from UniProt Q9Y5Y9 1-1956)” showed a #Peptides of 11 peptides.
In the case of “SPLICING FACTOR 1 (from UniProt Q15637 2-639)”, the #Peptides is reported as 4 peptides.
Work on “SRY (SEX … REGION Y)-BOX 6 (from UniProt P35712 1-828)” yielded a #Peptides of 2 peptides.
In the case of “STATHMIN-LIKE 3 (from UniProt Q9NZ72 1-180)”, the #Peptides is reported as 2 peptides.
With “TRANSLOCASE OF INNER MITOCHONDRIAL MEMBRANE 50 HOMOLOG (from UniProt Q3ZCQ8 45-353)” the #Peptides was 4 peptides.
“TRYPTOPHANYL TRNA … 2 (from UniProt Q9UGM6 19-360)” gave a #Peptides of 5 peptides.
“TUBULIN, BETA 2C (from UniProt P68371 1-445)” gave a #Peptides of 36 peptides.
Work on “TUBULIN, BETA 4 (from UniProt P04350 1-444)” yielded a #Peptides of 14 peptides.
Molecule “U2(RNU2) SMALL NUCLEAR RNA AUXILIARY FACTOR 1 (from UniProt Q01081 2-240)” has a #Peptides of 1 peptides.
“UBR4 (ZINC FINGER, UBR1 TYPE 1) (from UniProt Q5T4S7 1-5183)” was tested, and the #Peptides was 8 peptides.
In the case of “UDP-GLUCOSE PYROPHOSPHORYLASE 1 (from UniProt Q16851 1-508)”, the #Peptides is reported as 13 peptides.
With “ZINC FINGER PROTEIN 300 (from UniProt Q96RE9 1-604)” the #Peptides was 3 peptides.
Work on “ZINC FINGER PROTEIN 703 (from UniProt Q9H7S9 2-590)” yielded a #Peptides of 2 peptides.
… (from UniProt P02787 20-698) showed a #Peptides of 7 peptides.
“… CYCLASE 6 (from UniProt O43306 1-1168)” gave a #Peptides of 4 peptides.
“… EXPRESSED 10 (from UniProt Q86TG7 1-708)” was tested, and the #Peptides was 3 peptides.
In the case of “…, DSH HOMOLOG 2 (DROSOPHILA) (from UniProt O14641 1-736)”, the #Peptides is reported as 3 peptides.
“…-3-PHOSPHATE DEHYDROGENASE (from UniProt P04406 2-335)” gave a #Peptides of 3 peptides.
In the case of …-TRNA … 2 (from UniProt O95363 1-451), the #Peptides is reported as 13 peptides.
…-TRNA … 2 (from UniProt Q96I59 15-477) gave a #Peptides of 2 peptides.
Work on …-… 9 (from UniProt Q86TI2 2-863) yielded a #Peptides of 20 peptides.

The molecules below were run against αIIbβ3 (human) (UniProt P08514) (assay: antibody staining of UCB-derived megakaryocytes, before thrombin receptor-activating peptide).
“PAC1, an activation-dependent, ligand-mimetic anti-αIIbβ3 monoclonal antibody” was tested, and the percentage of UCB cells recognized was 3%.

From patent US20100048677A1 (NEW YORK BLOOD CENTER, published 2010)
